{"source": "patent US20210147547A1", "molecular_target": "PD-L1 (UniProt Q9NZQ7)", "sequence (Q9NZQ7 19-238 limits assumed)": "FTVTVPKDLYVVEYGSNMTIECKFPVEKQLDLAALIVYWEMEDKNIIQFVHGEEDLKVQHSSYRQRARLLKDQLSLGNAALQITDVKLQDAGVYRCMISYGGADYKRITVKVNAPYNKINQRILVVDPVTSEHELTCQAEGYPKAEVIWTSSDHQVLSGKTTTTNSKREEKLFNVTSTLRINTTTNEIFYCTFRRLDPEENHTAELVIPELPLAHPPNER", "test": "in vitro Biacore assay (SPR); format not stated", "data": [{"substance": "FAZ053 (antibody)", "values": [{"measurement": "Kd", "result": 140, "unit": "pM"}]}]}
